Laboratory results from patent US20210388087A1.
Numbering of substitutions follows the chain as printed. Names and notes keep the numbering of the source.

B1: H183/L072 VL Y32W (antibody, name in Kabat numbering, V domains shown)
VH: QVQLVESGGGLVQPGRSLRLSCAASGFTFSNAWMHWVRQAPGKGLEWVAQIKDKGNAYAAYYAPSVKGRFTISRDDSKNSIYLQMNSLKTEDTAVYYCHYVHYASASTVLPAFGVDAWGQGTTVTVSS
VL: DIVMTQSPLSLPVTPGEPASISCQASQELVHMNRNTWLHWYQQKPGQAPRLLIYKVSNRFPGVPDRFSGSGSGTDFTLKISRVEAEDVGVYYCAQGTSVPFTFGQGTKLEIK
B2: H183/L072 VL L33W (antibody, name in Kabat numbering, V domains shown)
VH: B1 VH
VL: B1 VL with W37Y, L38W
B3: H183/L072 VL H27dY (antibody, name in Kabat numbering, V domains shown)
VH: B1 VH
VL: B1 VL with H31Y, W37Y
B4: H183/L072 VL N28Y (antibody, name in Kabat numbering, V domains shown)
VH: B1 VH
VL: B1 VL with N33Y, W37Y
B5: H183/L072 VL T31Y (antibody, name in Kabat numbering, V domains shown)
VH: B1 VH
VL: B1 VL with T36Y, W37Y
B6: H183/L072 VL L33Y (antibody, name in Kabat numbering, V domains shown)
VH: B1 VH
VL: B1 VL with W37Y, L38Y
B7: H183/L072 VL K50A (antibody, name in Kabat numbering, V domains shown)
VH: B1 VH
VL: B1 VL with W37Y, K55A
B8: H183/L072 VL Q90A (antibody, name in Kabat numbering, V domains shown)
VH: B1 VH
VL: B1 VL with W37Y, Q95A
B9: H183/L072 VL G91A (antibody, name in Kabat numbering, V domains shown)
VH: B1 VH
VL: B1 VL with W37Y, G96A
B10: H183/L072 VL P95A (antibody, name in Kabat numbering, V domains shown)
VH: B1 VH
VL: B1 VL with W37Y, P100A
B11: H183/L072 VL F96A (antibody, name in Kabat numbering, V domains shown)
VH: B1 VH
VL: B1 VL with W37Y, F101A
B12: H183/L072 VL K50I (antibody, name in Kabat numbering, V domains shown)
VH: B1 VH
VL: B1 VL with W37Y, K55I
B13: H183/L072 VL N53I (antibody, name in Kabat numbering, V domains shown)
VH: B1 VH
VL: B1 VL with W37Y, N58I
B14: H183/L072 VL A89I (antibody, name in Kabat numbering, V domains shown)
VH: B1 VH
VL: B1 VL with W37Y, A94I
B15: H183/L072 VL Q90I (antibody, name in Kabat numbering, V domains shown)
VH: B1 VH
VL: B1 VL with W37Y, Q95I
B16: H183/L072 VL G91I (antibody, name in Kabat numbering, V domains shown)
VH: B1 VH
VL: B1 VL with W37Y, G96I
B17: H183/L072 VL T92I (antibody, name in Kabat numbering, V domains shown)
VH: B1 VH
VL: B1 VL with W37Y, T97I
B18: H183/L072 VL P95I (antibody, name in Kabat numbering, V domains shown)
VH: B1 VH
VL: B1 VL with W37Y, P100I
B19: H183/L072 VL F96I (antibody, name in Kabat numbering, V domains shown)
VH: B1 VH
VL: B1 VL with W37Y, F101I
B20: H183/L072 VL K50L (antibody, name in Kabat numbering, V domains shown)
VH: B1 VH
VL: B1 VL with W37Y, K55L
B21: H183/L072 VL A89L (antibody, name in Kabat numbering, V domains shown)
VH: B1 VH
VL: B1 VL with W37Y, A94L
B22: H183/L072 VL Q90L (antibody, name in Kabat numbering, V domains shown)
VH: B1 VH
VL: B1 VL with W37Y, Q95L
B23: H183/L072 VL G91L (antibody, name in Kabat numbering, V domains shown)
VH: B1 VH
VL: B1 VL with W37Y, G96L
B24: H183/L072 VL P95L (antibody, name in Kabat numbering, V domains shown)
VH: B1 VH
VL: B1 VL with W37Y, P100L
B25: H183/L072 VL F96L (antibody, name in Kabat numbering, V domains shown)
VH: B1 VH
VL: B1 VL with W37Y, F101L
B26: H183/L072 VL K50M (antibody, name in Kabat numbering, V domains shown)
VH: B1 VH
VL: B1 VL with W37Y, K55M
B27: H183/L072 VL Q90M (antibody, name in Kabat numbering, V domains shown)
VH: B1 VH
VL: B1 VL with W37Y, Q95M
B28: H183/L072 VL G91M (antibody, name in Kabat numbering, V domains shown)
VH: B1 VH
VL: B1 VL with W37Y, G96M
B29: H183/L072 VL P95M (antibody, name in Kabat numbering, V domains shown)
VH: B1 VH
VL: B1 VL with W37Y, P100M
B30: H183/L072 VL F96M (antibody, name in Kabat numbering, V domains shown)
VH: B1 VH
VL: B1 VL with W37Y, F101M
B31: H183/L072 VL K50P (antibody, name in Kabat numbering, V domains shown)
VH: B1 VH
VL: B1 VL with W37Y, K55P
B32: H183/L072 VL V51P (antibody, name in Kabat numbering, V domains shown)
VH: B1 VH
VL: B1 VL with W37Y, V56P
B33: H183/L072 VL S52P (antibody, name in Kabat numbering, V domains shown)
VH: B1 VH
VL: B1 VL with W37Y, S57P
B34: H183/L072 VL A89P (antibody, name in Kabat numbering, V domains shown)
VH: B1 VH
VL: B1 VL with W37Y, A94P
B35: H183/L072 VL Q90P (antibody, name in Kabat numbering, V domains shown)
VH: B1 VH
VL: B1 VL with W37Y, Q95P
B36: H183/L072 VL G91P (antibody, name in Kabat numbering, V domains shown)
VH: B1 VH
VL: B1 VL with W37Y, G96P
B37: H183/L072 VL T92P (antibody, name in Kabat numbering, V domains shown)
VH: B1 VH
VL: B1 VL with W37Y, T97P
B38: H183/L072 VL S93P (antibody, name in Kabat numbering, V domains shown)
VH: B1 VH
VL: B1 VL with W37Y, S98P
B39: H183/L072 VL F96P (antibody, name in Kabat numbering, V domains shown)
VH: B1 VH
VL: B1 VL with W37Y, F101P
B40: H183/L072 VL T97P (antibody, name in Kabat numbering, V domains shown)
VH: B1 VH
VL: B1 VL with W37Y, T102P
B41: H183/L072 VL K50V (antibody, name in Kabat numbering, V domains shown)
VH: B1 VH
VL: B1 VL with W37Y, K55V
B42: H183/L072 VL Q90V (antibody, name in Kabat numbering, V domains shown)
VH: B1 VH
VL: B1 VL with W37Y, Q95V
B43: H183/L072 VL G91V (antibody, name in Kabat numbering, V domains shown)
VH: B1 VH
VL: B1 VL with W37Y, G96V
B44: H183/L072 VL P95V (antibody, name in Kabat numbering, V domains shown)
VH: B1 VH
VL: B1 VL with W37Y, P100V
B45: H183/L072 VL F96V (antibody, name in Kabat numbering, V domains shown)
VH: B1 VH
VL: B1 VL with W37Y, F101V
B46: H183/L072 VL K50G (antibody, name in Kabat numbering, V domains shown)
VH: B1 VH
VL: B1 VL with W37Y, K55G
B47: H183/L072 VL Q90G (antibody, name in Kabat numbering, V domains shown)
VH: B1 VH
VL: B1 VL with W37Y, Q95G

target: Human CD3eg linker (human); assay: SPR; fold vs parent H183/L072
Sequence (chain, as listed by the source limits assumed): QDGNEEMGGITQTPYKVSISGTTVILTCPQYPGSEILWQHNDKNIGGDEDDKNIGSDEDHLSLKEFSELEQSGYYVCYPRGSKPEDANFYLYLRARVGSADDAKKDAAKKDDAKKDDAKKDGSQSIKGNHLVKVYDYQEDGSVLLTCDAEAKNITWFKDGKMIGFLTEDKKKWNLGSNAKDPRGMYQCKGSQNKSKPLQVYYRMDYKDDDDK

Fold change of affinity, 0 fold:
B1
B2
B3
B4
B5
B6
B7
B8
B9
B10
B11
B12
B13
B14
B15
B16
B17
B18
B19
B20
B21
B22
B23
B24
B25
B26
B27
B28
B29
B30
B31
B32
B33
B34
B35
B36
B37
B38
B39
B40
B41
B42
B43
B44
B45
B46
B47
